Assay results reported in the RNAGym collection of RNA variant scans (doi:10.7554/elife.90254).

B1: OR4K15 (parent)
chain: GUUAACGGUCAUAGGCCAUGGAAACUAGGAGCACCAUUUCGCUGCCAGUGAAGAAAUGAACAAAGAAAAUCUGGGCCAGGCAGGCAUCAAAAGAAAUAGUCUUGCGCUCAACCAGAAAGUCUGUAAUCAUUUUAAGGGUA

Variants of: B1
Experiment: self-cleavage, relative activity (ratio to wild type); higher = more cleavage; in vitro, sequencing; the parent is a self-cleaving ribozyme

Variant | self-cleavage
A5G A114G | 0.41
A5G A114U | 0.04
A4G A33G | 1.14
U2G A11G | 1.05
A4G A91G | 1.13
A4G A91U | 1.36
A5C U57C | 0.75
A5C U122C | 0.99
A4U A114U | 0.22
U2C G53U | 1.64
U3C A18U | 0.78
U3C A18G | 1.02
A4G A23G | 1.09
A4C C81U | 0.79
U2G A118G | 0.66
A4G A51G | 1.01
U3C U87C | 0.63
U3C G84C | 0.37
A4G U70C | 0.79
A5G A134U | 1.24
A4U A96G | 1.05
U3C A23C | 1.42
U3C A52U | 1.8
U3C G48A | 0.97

Variant | self-cleavage
U3C A51U | 1.27
U3C A51C | 0.84
A5C A59U | 1.73
A4G A116U | 0.26
A4G A116G | 0.94
U3C C101U | 0.51
A4G A64C | 0.79
U3C A66G | 1.45
U3A U70A | 1.46
A5G A36C | 1.79
A5G A36G | 0.8
U3C A24G | 0.9
U3A A5U | 0.64
U3G A30G | 1.12
U2C U139A | 0.92
A4G U139C | 1.21
U3C U70C | 0.76
A5G G58A | 1.07
U2C G138A | 1.1
U2C G136A | 1.66
A4G A47C | 0.42
U2G A116G | 0.37
A5G A59G | 0.99
A5G A33C | 1.28

Variant | self-cleavage
A5G A33G | 0.67
A5G A33U | 1.01
U2C G84A | 1.46
U2C C109U | 0.29
A5G A140G | 0.77
A4G A66G | 0.53
A5G G44A | 0.86
A4G C85U | 0.99
U2C G75U | 0.27
U2C U37G | 0.75
U2C U37C | 1.26
A5G A18G | 0.8
A5G A18U | 1.12
U2G A140G | 1.09
U2C G50U | 1.13
A5G A11G | 0.63
A4G C88G | 1.46
A4G C88U | 0.96
A5G A78C | 0.62
A5C U127C | 0.89
U3C U124C | 0.9
U3C A86G | 1.05
U3C A86C | 0.37
U2C C76A | 0.1

Variant | self-cleavage
U2G U102C | 0.94
U2G U39C | 2.03
U3A A22G | 1.2
U3C A118G | 0.54
U3C A118U | 1.94
A4G A36G | 1.43
A4G A110U | 1.15
A5C G106U | 0.07
U2C U3C | 0.98
U3A G53A | 1.01
A4G C35A | 1.14
U2C G74A | 0.18
U2C G74U | 0.08
A4U A13G | 1.23
A4C U87C | 0.81
A5G A117G | 1.51
U2G A33G | 0.43
U2C U133C | 0.71
A4G A11G | 0.86
A4C A24U | 0.5
A4C A24G | 0.75
A5G C88A | 0.8
U3C U103A | 0.64
A4G A125G | 0.55

Variant | self-cleavage
U2G U57C | 1.13
U3C A117G | 1.69
U3C U39G | 1.72
U2C U122A | 1.85
A5C U102C | 0.96
A5G A22G | 0.81
A5G A22U | 1.01
A4G U39A | 1.27
A5G A64G | 1.16
A5G A64U | 1.85
A5G A91G | 0.47
U3C C77U | 0.69
A5G A62U | 1.09
A5G A129G | 0.87
U2C U102A | 0.73
U2C U102C | 0.64
U2G A135G | 0.69
U2C U100A | 0.48
A4G A55U | 1.33
U2C C61U | 1.77
A4G A27G | 1.52
A5G A69G | 1.54
U2C G14A | 1.39
U3A A126G | 1.73

Variant | self-cleavage
U2G U9C | 1.05
U3C A63U | 1.02
A4U U70C | 0.89
U3C A140G | 0.65
A5C U108C | 0.03
U3A U130G | 0.73
A4C U43A | 0.94
U2C U131G | 1.08
A5G C101A | 0.25
U2G U132C | 1.4
U3A A64G | 1.11
A4U U57G | 0.74
A4U U120C | 0.54
U2G U12C | 0.61
U2G U12A | 1.45
U3C U72A | 0.17
U2C U103C | 0.99
A5C U100C | 1.25
U2G U19A | 0.72
A5C A98G | 0.42
U3A U139A | 1.89
U3C A22G | 1.33
A5G A92G | 0.53
A4G C113U | 0.19

Variant | self-cleavage
A5C A30G | 0.85
A4G A111G | 0.1
A4G U122C | 0.78
U2C U108A | 0.01
A4G U9C | 1.33
A4G A135G | 1.18
A4G A78G | 0.59
U2C C112U | 0
A5G C40U | 1.31
U2G G93U | 1.01
U3A A125G | 0.39
A4G A60G | 1.27
U3C A89G | 0.99
U3C A89U | 0.54
A5G A118G | 1
A5G A118U | 0.56
A4U | 1.19
A4C | 0.61
A4G | 0.87
U3C A60G | 0.93
U3C U37C | 1.05
U2C U120C | 0.43
A5G G74A | 0.73
A5G A95G | 1.27

Variant | self-cleavage
A5G G99A | 0.66
U3C U43C | 0.78
A5C A110U | 0.95
A4G A54G | 0.55
A5G G83A | 1.54
A5G A51U | 1.35
A5G A51G | 1.2
U2G U130C | 0.3
A4G G14U | 0.67
A5G A82G | 0.68
A5G A82U | 0.41
U3C A114U | 0.04
A5G G15A | 1.02
A4G U43C | 1.35
A5G C45A | 0.99
U3A U131C | 0.64
U3C C109G | 0.04
A5G A27G | 1.02
U3C U132G | 0.36
U3A A47U | 1.18
A4G G75A | 0.33
A5G A24C | 0.68
A4U U132C | 2.14
A5G U9A | 1.38

Variant | self-cleavage
A5C A33U | 2.21
A4G A52G | 1.08
U2C G28U | 2.17
U2C U87A | 0.9
A4U U133C | 1.79
A4G C42U | 0.81
A4G G20A | 0.82
A4G A114G | 0.76
A4G U49C | 0.82
A4G U49A | 0.8
U2C U26G | 0.72
U2C U26C | 1.2
A5G A23G | 0.8
U3G A110U | 1.67
A4G U131C | 1.45
A5C A116G | 0.83
A5G G137U | 1.62
U2C G137U | 1.25
U3C U57C | 1.28
U3C U57A | 0.88
U3G A52G | 0.67
U3C U12C | 1.24
U3C U122C | 1.32
A4G A62G | 1.09

Variant | self-cleavage
A4G G137U | 2
U2G A111U | 0.17
U2G A111G | 0
A5G A52U | 0.85
A4U U19C | 0.7
A4G A67G | 1.16
A4G U102C | 1.36
U3C U97C | 1.12
U3A A18G | 1.11
A5G G21U | 0.96
U3A A92G | 1.3
U2G | 0.92
A4U A59U | 1.95
U2G A63C | 0.7
A4U A36U | 1.62
A4G A86G | 0.72
A4G A86U | 0.95
A4G A18G | 1.23
U2G A92G | 0.73
A4G U57C | 0.86
U3C G7A | 0.99
A5G A55C | 0.33
U3A A111G | 0.08
A5C A126G | 1.54

Variant | self-cleavage
A5G A116G | 0.47
U3C A30U | 1.37
A5G G29A | 1.06
A4U A140U | 1.5
A4G G50U | 1.39
A4G A56U | 0.65
A5G A30G | 1.03
U3C A98C | 1.18
U3C A98G | 0.6
A4G A30G | 0.64
A4G C77U | 1.45
U3A A89G | 1.51
A4G A24G | 1.62
U2C U124C | 0.42
A5G A63U | 1.35
A4G A22G | 1.17
U3C A82U | 0.21
A4U A30U | 1.05
A4G A68G | 0.87
A5G G14C | 1.57
A4U A118G | 1.08
U2C U57G | 0.66
U2C U57C | 0.75
A5G G48U | 0.93

Variant | self-cleavage
U2G A94G | 0.48
U3C U9A | 0.85
U3C U9C | 1.36
U3G A140G | 1.39
A4G A129G | 0.78
A5C U87C | 0.73
A4U A47G | 0
U2G U3C | 1.11
U2C U49A | 1.5
U2C U49C | 1.34
U3C U120C | 1.42
U3C U120A | 1.72
A5C A66U | 0.83
U2G A51G | 0.95
U3G A11U | 0.74
U2C G7A | 1.22
U2C G7U | 1.2
U3C U26C | 1.29
U2G A23G | 0.75
A4G G74C | 0.36
U3A U100C | 1.63
U3A A23G | 1.17
A5G U37C | 1.29
A5G U37A | 1.3

Variant | self-cleavage
A5G A98G | 0.7
A4G U132A | 0.44
A4G U132C | 0.72
A4G U37C | 0.91
A4G A59G | 1.04
U3A G65U | 0.33
U3C G75A | 0.11
U3C G75C | 0.08
U2G U38A | 1.08
U2C U70G | 1.51
A4G G83A | 1.44
A4G U133A | 1.25
A4G U133C | 1.3
A5G A68U | 0.85
A5G A68C | 1.03
U2C U132C | 1.4
U2C U38C | 1.09
U2C U38A | 1.07
A4G A126G | 1.09
U3C A129G | 1.14
A5G A56U | 1.18
A4G A117U | 0.81
A4G A117G | 1.18
A5G C85U | 0.92

Variant | self-cleavage
A5G C35U | 1.59
U3A U127A | 1.84
A5G A60U | 1.08
A5G A60G | 1.08
U2C U72G | 0.19
A5G G106C | 0.08
U3C C32U | 1.2
A4G U127C | 0.38
A5C A60G | 1.88
U3C A11G | 1.34
U2C U130C | 1.06
A5G A135U | 1.26
A5C U38C | 1.28
U3A A66G | 1.1
U3C A5G | 1
U3A A116G | 0.32
U2C C46U | 0.54
A4G C105U | 0.14
U3C A96U | 1.02
U3C A96G | 1.3
U2C C128A | 0.85
U3C C105U | 0.06
